# Experimental data: patent US20130251703A1 (Novartis, published 2013)
# Numbering of substitutions follows the chain as printed.
# B1: MOR12603 (antibody, human IgG1, kappa, V domains shown)
# VH: QVQLVQSGAEVKKPGSSVKVSCKASGGTFSSYAISWVRQAPGQGLEWMGLIIPRYGKARYAQKFQGRVTITADESTSTAYMELSSLRSEDTAVYYCARNWPYYYMDFWGQGTLVTVSS
# VL: DIVLTQSPATLSLSPGERATLSCRASQNIVFNLAWYQQKPGQAPRLLIYDASNRATGVPARFSGSGSGTDFTLTISSLEPEDFAVYYCQQTKNRPPTFGQGTKVEIKR
# notes: Tested as IgG
# B2: MOR12605 (antibody, human IgG1, kappa, V domains shown)
# VH: B1 VH
# VL: B1 VL with T91F, K92R, N93R, R94K, P95S, P96N
# notes: Tested as IgG
# B3: MOR13655 (antibody, human IgG1, lambda, V domains shown)
# VH: QVQLVQSGAEVKKPGASVKVSCKASGYTFTSYDIHWVRQAPGQGLEWMGRIDPYSGNTNYAQKFQGRVTMTRDTSISTAYMELSRLRSEDTAVYYCARGSFYTRDSYFDVWGQGTLVTVSS
# VL: DIALTQPASVSGSPGQSITISCTGTSSDVGTYNQVSWYQQHPGKAPKLMIYGVSKRPSGVSNRFSGSKSGNTASLTISGLQAEDEADYYCSSATQKPDVTVFGGGTKLTVLG
# notes: Tested as IgG
# B4: MOR13654 (antibody, human IgG1, lambda, V domains shown)
# VH: B3 VH
# VL: B3 VL with S91Q, A93R, T94G, Q95E, K96Y, P97R, D98P, V99G, T100W
# notes: Tested as IgG
# B5: MOR13666 (antibody, human IgG1, lambda, V domains shown)
# VH: B3 VH
# VL: DIALTQPASVSGSPGQSITISCTGTSSDVGTYNQVSWYQQHPGKAPKLMIYGVSKRPSGVSNRFSGSKSGNTASLTISGLQAEDEADYYCSTTTYSFHMVFGGGTKLTVLG
# notes: Tested as IgG
# B6: MOR12514 (antibody, human IgG1, lambda, V domains shown)
# VH: B3 VH
# VL: B5 VL with S91Q, T92V, T93R, T94D, Y95M, F97L, H98F, M99D
# notes: Tested as IgG
# B7: MOR12516 (antibody, human IgG1, lambda, V domains shown)
# VH: B3 VH
# VL: B3 VL with S91Q, A93R, T94D, Q95T, K96Y, P97R, D98P, T100K
# notes: Tested as IgG
# B8: MOR12515 (antibody, human IgG1, lambda, V domains shown)
# VH: B3 VH
# VL: B5 VL with S91Y, T92S, T93R, T94D, Y95S, S96P, F97M, H98D, M99Q
# notes: Tested as IgG
# B9: MOR12921 (antibody, human IgG1, lambda, V domains shown)
# VH: B3 VH with S31G, D33Y, I34M, R50D, Y54H, T58A, N59V
# VL: B5 VL with T92S, T93R, T94D, Y95L, S96I, F97G, M99Y
# notes: Tested as IgG
# Molecular target: T1, human HER3 endogenously expressed on human cancer cells (SK-Br-3, BT-474, MCF7) (human, UniProt P21860 20-1342)
# Assay: cell-based or functional assay
BT-474 pAkt % inhibition [%],BT-474 pAkt IC50 [pM],SK-Br-3 pAkt % inhibition [%],SK-Br-3 pAkt IC50 [pM],MCF7 pAkt % inhibition [%],MCF7 pAkt IC50 [pM],Binder
77,137,84,17,–,–,B1
67,173,84,140,76,533,B2
50,–,86,62,79,251,B3
58,142,92,89,72,244,B4
50,275,90,78,72,49,B5

# Molecular target: T1, human HER3 endogenously expressed on …
# Assay: cell-based or functional assay
# Remark: another data set of the same source
BT-474 proliferation % inhibition [%],BT-474 proliferation IC50 [pM],MCF7 proliferation % inhibition [%],MCF7 proliferation IC50 [pM],SK-Br-3 proliferation % inhibition [%],SK-Br-3 proliferation IC50 [pM],Binder
37,136,44,58,36,34,B1
–,–,45,28,29,0.01,B2
–,–,29,317,36,44,B6
–,–,34,492,34,2080,B7
31,141,46,86,39,74,B3
–,–,26,1090,36,278,B8
27,632,–,–,34,136,B4
–,–,31,2310,42,432,B9
31,1120,–,–,39,870,B5

# Molecular target: T1, human HER3 endogenously expressed on …
# Assay: cell-based or functional assay
# Remark: another data set of the same source
BT474 pHER3 % inhibition [%],BT474 pHER3 IC50 [pM],MCF7 pHER3 % inhibition [%],MCF7 pHER3 IC50 [pM],SK-Br-3 pHER3 % inhibition [%],SK-Br-3 pHER3 IC50 [pM],Binder
70,79,77,11,74,18,B1
64,1490,89,318,73,7,B2
70,707,67,435,77,223,B6
63,–,62,590,74,1870,B7
61,19,80,149,69,90,B3
71,365,71,674,76,278,B8
61,195,77,331,69,182,B4
65,418,79,1230,68,252,B9
65,420,73,168,69,166,B5

# Molecular target: T2, Hu HER3: CD33-[Human HER3, residues 20-640]-TAG (human, UniProt P21860 20-640)
# T2 construct: also called hu HER3-Tag; HER3-Tag; not shown: C-terminal TAG (e.g. FLAG TAG)
# Assay: solution equilibrium titration (SET), IgG, ECL read-out
row,Kd [pM],Binder
1,2000,B1
2,1800,B2
3,970,B6
4,1800,B7
5,66,B3
6,870,B8
7,110,B4
8,150,B9
9,150,B5

# Molecular target: T3, Rat HER3: CD33-[Rat HER3, residues 20-643]-TAG (rat, UniProt Q62799 20-643)
# T3 construct: also called ra HER3-Tag; not shown: C-terminal TAG (e.g. FLAG TAG)
# Assay: as above
row,Kd [pM],Binder
1,11000,B1
2,9600,B2
3,690,B9

# Molecular target: T4, Mu HER3: CD33-[Murine HER3, residues 20-643]-TAG (mouse, UniProt Q61526 20-643)
# T4 construct: also called mu HER3-Tag; not shown: C-terminal TAG (e.g. FLAG TAG)
# Assay: as above
row,Kd [pM],Binder
1,4100,B1
2,2300,B2
3,2400,B6
4,3900,B7
5,1500,B8
6,560,B9

# Molecular target: T5, Cyno HER3: CD33-[Cyno HER3, residues 20-643]-TAG (cynomolgus monkey, UniProt G7PIG5 20-643)
# T5 construct: also called cy HER3-Tag; not shown: C-terminal TAG (e.g. FLAG TAG)
# Assay: as above
row,Kd [pM],Binder
1,6100,B1
2,2900,B2
3,1400,B6
4,3600,B7
5,720,B8
6,600,B9
